Experimental data reported in the RNAGym collection of RNA variant scans (doi:10.1073/pnas.2313332121).
Variants at the floor of the assay were thinned out.

B1: TPR 5TU (parent)
chain: GGAUCUUCUCGAUCUAACAAAAAAGACAAAUCUGCCACAAAGCUUGAGAGCAUCUUCGGAUGCAGAGGCGGCAGCCUUCGGUGGCGCGAUAGCGCCAACGUUCUCAACUAUGACACGCAAAACGCGUGCUCCGUUGAAUGGAGUUUAUCAUG

Variants of: B1
Assay: polymerase ribozyme fitness, log enrichment relative to wild type (log ratio); higher = more active; in vitro selection for triplet polymerase activity
Procedure, shortened: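 One round of in vitro selection, in triplicate, was applied to PCR-built, transcribed mutant libraries of each subunit of a heterodimeric triplet polymerase ribozyme. The steps were annealing with a biotinylated primer, partner subunit and triplets, incubation frozen at −7 °C, gel excision of extended constructs, streptavidin-bead capture and RT-PCR. Fitness is the logarithm, base 2, of genotype enrichment over wild-type enrichment from inverse-variance-weighted replicate averages of Illumina-sequenced inputs and outputs, keeping genotypes with ≥10 input reads and ≥1 read per output.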

| Variant | polymerase ribozyme fitness (log ratio) |
| --- | --- |
| G48C G70A C75G C87G C93G G140A G152A | -4.11 |
| G48C A91G C105U A147G | ≤ -4.2 |
| G48A C72G | ≤ -4.2 |
| A49C U53A A106G | ≤ -4.2 |
| A49C G50C A91U C96G | ≤ -4.2 |
| A49C C96A | -3.04 |
| A49C G92U U127C | ≤ -4.2 |
| A49G C51G | -2.66 |
| G48A G59U G94A C114A C125A | ≤ -4.2 |
| A49G C75U C96G | -2.68 |
| A49C G86U C96G C123U U146G | ≤ -4.2 |
| A49C C72A C108A U135G | ≤ -4.2 |
| A49C A98G | ≤ -4.2 |
| A49C C95U C96G | -3.85 |
| A49G C54A C118A | -3.25 |
| G48C C51U C85U C129A U145C | ≤ -4.2 |
| A47U U55A A89G A120U U144G | -0.697 |
| A49C A52G G58C G84A C131G G133C U145A | ≤ -4.2 |
| G48C C96A U111A A138C | ≤ -4.2 |
| G48U G92U A121C A150C | ≤ -4.2 |
| A49C G143A | -4.14 |

| Variant | polymerase ribozyme fitness (log ratio) |
| --- | --- |
| A49C C51U A73G | ≤ -4.2 |
| G48C A49C A122U | -3.93 |
| G48U C57G C93U G136A U146G | -2.43 |
| A49C C93A C103G G117U C149G | ≤ -4.2 |
| G48A C57A C125U | -1.74 |
| G48C G141A | -3.64 |
| G48C G141U | -1.8 |
| G48A G59A G86A U104G A110U | ≤ -4.2 |
| A49C G70A C75G C93G A97C C116G C118G | ≤ -4.2 |
| A49C G94C | -4.16 |
| A47U U55G | -1.03 |
| A47U U55A | -0.542 |
| G48A C57G A60G C63A C99G | ≤ -4.2 |
| G48A G84A A107C C118G | ≤ -4.2 |
| A49G C63U G81C U104G | -2.29 |
| G48C G92U | -1.69 |
| G48A G86U C95U C123A | -2.89 |
| A49C G141C | -4.14 |
| A49C G141A | -3.79 |
| G48C G50U G92C U145G | -4.11 |
| A49C A73G A91G C108U A119C C125A | ≤ -4.2 |

| Variant | polymerase ribozyme fitness (log ratio) |
| --- | --- |
| G48A U135A | -0.864 |
| A49G G50C C95U A98G U145G | -2.77 |
| A49G C75G U77A U82C C93G C125U U134C U146C A147U | ≤ -4.2 |
| A49C C51A C99U C132G | ≤ -4.2 |
| A49C U61G C99G G124A | ≤ -4.2 |
| G48U C149G | ≤ -4.2 |
| G48U G59C G81A A97U | -1.88 |
| G48A C51U C54A U82G A120U | -3.66 |
| G48A A49U G70U C75A G88A | ≤ -4.2 |
| A49C C79U U151G | ≤ -4.2 |
| A49C G50C U53A C79A A137U | ≤ -4.2 |
| A49C G68A U102G A107G | ≤ -4.2 |
| A49C C54U G86C G88C A138U | ≤ -4.2 |
| A47U G126C | -0.0812 |
| G48C A49G U55G A66U C85U A97C G126C | ≤ -4.2 |
| A47U U56A C99G A121C | -2.02 |
| A49C U77G G94C | ≤ -4.2 |
| G48U C116U | -0.65 |
| A49C U56A A60U | ≤ -4.2 |
| A47U U56A C87G A115C G141A | -3.84 |
| A49C A52C U56C C87G C95U A98G A107C A119G | -4.17 |

| Variant | polymerase ribozyme fitness (log ratio) |
| --- | --- |
| G48U G83A U134A G136A | -2.44 |
| A49C A89U G92C U104G U127G A142G | ≤ -4.2 |
| G48C C99U | -1.72 |
| G48C U55A C103G | -0.533 |
| G48U C85A U127C | -2.74 |
| A49C C87U | -4.01 |
| G48U G94A U151C | ≤ -4.2 |
| G48A A49G C54U U90G G92U C99U A121C U151A | ≤ -4.2 |
| A49C A66C G81C G83U C99U U101G C108U | ≤ -4.2 |
| A49C A52C C54A G74U C76G C125U | ≤ -4.2 |
| G48C C63U C69U G74A C93A U102G A107G | ≤ -4.2 |
| A49C U77G A121C U148A | ≤ -4.2 |
| G48U U82G C96G | -1.48 |
| G48A C99U U111A A137G A147C | ≤ -4.2 |
| G48U G59A C93U | -1.39 |
| G48A A52G G83U U101A C131A U148A | ≤ -4.2 |
| A49G A52G U55A G67A A107U G133C A137G U139C | ≤ -4.2 |
| G48U | 0.247 |
| G48C | 0.0216 |
| G48A | -0.217 |
| G48C C85A A142U | ≤ -4.2 |
